Assays:
Glu105 = assay: UV-vis; details: dark (ground) state, retinal-bound wild type; cited from earlier work
[1] = molecular target: ChR024 (cation-conducting channelrhodopsin), full-length wild type, residues M1-T280; assay: cryo-EM structure

stoichiometry N [1]	Substance	pKa (Glu105)
–	ChR024 (cation-conducting channelrhodopsin) (not stated (uncultured organism; sequence mined from a metagenomic database, identifier IMGM3300027749|Ga0209084_1026585|Ga0209084_10265853))	8.25
3	ChR024 (cation-conducting channelrhodopsin), full-length wild type, residues M1-T280 (natural protein)	–

From article doi:10.1101/2025.09.16.675330
